System: peptide library, one residue held at a place counted from the S/T acceptor
Assay: relative phosphorylation of the sub-library (ratio to the mean residue at this position); human; higher = residue favoured
Details: A fixed; at +1
Summary of the method: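 Spots on streptavidin membranes were phosphorimaged and quantified by densitometry to measure phosphorylation of biotinylated degenerate peptide sub-libraries by purified recombinant kinases, human or orthologue constructs. The reactions ran in 384-well plates for 90 min under kinase-specific conditions, with peptides at 50 μM and 50 μM ATP spiked with γ-32P-ATP. Relative sub-library phosphorylation is the ratio to the mean residue at that position.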

TSSK1B, construct: Full length, sequence (Q9BXA7 whole entry, looked up): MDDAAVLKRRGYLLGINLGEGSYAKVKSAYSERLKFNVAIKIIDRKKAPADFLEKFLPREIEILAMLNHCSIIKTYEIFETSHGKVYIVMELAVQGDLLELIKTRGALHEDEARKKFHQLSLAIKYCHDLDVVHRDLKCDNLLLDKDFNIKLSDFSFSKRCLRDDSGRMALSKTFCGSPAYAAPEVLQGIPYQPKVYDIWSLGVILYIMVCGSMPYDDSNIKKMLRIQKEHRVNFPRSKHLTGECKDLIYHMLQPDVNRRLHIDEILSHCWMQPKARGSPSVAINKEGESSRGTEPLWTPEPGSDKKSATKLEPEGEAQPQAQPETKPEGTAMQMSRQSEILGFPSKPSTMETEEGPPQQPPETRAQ
CDKL1, construct: aa2-304, sequence (Q00532 2-304, looked up): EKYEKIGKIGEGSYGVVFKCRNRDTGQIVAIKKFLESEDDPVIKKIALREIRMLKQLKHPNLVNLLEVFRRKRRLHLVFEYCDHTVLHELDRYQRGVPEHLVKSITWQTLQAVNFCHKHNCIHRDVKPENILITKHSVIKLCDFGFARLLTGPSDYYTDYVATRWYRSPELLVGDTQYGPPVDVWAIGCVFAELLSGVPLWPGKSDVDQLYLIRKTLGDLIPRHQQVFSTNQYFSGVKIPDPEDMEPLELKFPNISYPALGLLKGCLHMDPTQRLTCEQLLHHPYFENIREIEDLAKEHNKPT
CAMK2D, construct: Full length, sequence (Q13557 whole entry, looked up): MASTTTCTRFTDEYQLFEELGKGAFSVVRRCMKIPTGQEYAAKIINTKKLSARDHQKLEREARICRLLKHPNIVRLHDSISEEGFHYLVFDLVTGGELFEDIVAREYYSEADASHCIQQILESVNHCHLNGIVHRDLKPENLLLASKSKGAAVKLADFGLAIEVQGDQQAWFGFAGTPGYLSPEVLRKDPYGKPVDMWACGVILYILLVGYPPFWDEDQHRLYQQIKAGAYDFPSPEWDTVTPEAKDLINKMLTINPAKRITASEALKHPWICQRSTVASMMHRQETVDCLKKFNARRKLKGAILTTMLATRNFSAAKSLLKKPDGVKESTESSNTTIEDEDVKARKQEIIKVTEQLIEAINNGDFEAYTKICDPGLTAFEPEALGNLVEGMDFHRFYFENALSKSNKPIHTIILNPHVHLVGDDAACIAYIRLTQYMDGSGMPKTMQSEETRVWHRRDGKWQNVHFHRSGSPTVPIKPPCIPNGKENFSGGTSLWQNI
ACVR1B, construct: aa150-end, sequence (P36896 150-505, looked up): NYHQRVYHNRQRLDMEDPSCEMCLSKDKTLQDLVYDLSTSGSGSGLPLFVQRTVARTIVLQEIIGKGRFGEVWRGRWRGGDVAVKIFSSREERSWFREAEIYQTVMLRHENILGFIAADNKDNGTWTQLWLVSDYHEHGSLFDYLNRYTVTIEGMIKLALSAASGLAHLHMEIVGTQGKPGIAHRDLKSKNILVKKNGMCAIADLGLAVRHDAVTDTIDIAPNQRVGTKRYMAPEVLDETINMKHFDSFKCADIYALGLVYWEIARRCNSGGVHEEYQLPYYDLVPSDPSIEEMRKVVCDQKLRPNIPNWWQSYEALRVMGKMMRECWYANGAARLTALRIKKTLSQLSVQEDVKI
CIT, construct: aa1-449, sequence (O14578 1-449, looked up): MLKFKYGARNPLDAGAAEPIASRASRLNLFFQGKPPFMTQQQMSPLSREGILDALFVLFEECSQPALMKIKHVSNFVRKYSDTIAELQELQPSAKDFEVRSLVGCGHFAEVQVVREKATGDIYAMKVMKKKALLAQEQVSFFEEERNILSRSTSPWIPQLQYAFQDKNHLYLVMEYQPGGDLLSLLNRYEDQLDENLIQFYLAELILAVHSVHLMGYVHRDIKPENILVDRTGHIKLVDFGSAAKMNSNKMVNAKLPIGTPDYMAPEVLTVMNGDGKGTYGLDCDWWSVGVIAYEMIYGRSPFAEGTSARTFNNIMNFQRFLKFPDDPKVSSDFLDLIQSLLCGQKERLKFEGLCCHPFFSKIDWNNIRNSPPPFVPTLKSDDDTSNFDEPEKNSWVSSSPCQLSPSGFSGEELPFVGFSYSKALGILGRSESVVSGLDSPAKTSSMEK
CSNK1G3, construct: Full length, sequence (Q9Y6M4 whole entry, looked up): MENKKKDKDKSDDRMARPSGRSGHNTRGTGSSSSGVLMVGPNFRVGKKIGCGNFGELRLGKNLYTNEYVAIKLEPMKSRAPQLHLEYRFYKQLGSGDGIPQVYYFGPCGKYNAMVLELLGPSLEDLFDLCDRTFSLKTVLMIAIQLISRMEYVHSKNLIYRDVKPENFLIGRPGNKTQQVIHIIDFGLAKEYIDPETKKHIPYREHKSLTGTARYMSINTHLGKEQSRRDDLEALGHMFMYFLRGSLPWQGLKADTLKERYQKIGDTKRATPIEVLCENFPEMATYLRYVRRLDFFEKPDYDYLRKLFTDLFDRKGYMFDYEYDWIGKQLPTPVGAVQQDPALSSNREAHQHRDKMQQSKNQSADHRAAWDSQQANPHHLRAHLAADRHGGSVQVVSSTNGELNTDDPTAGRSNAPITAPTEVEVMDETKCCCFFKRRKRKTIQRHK
PAK1, construct: aa150-end, sequence (Q13153 150-545, looked up): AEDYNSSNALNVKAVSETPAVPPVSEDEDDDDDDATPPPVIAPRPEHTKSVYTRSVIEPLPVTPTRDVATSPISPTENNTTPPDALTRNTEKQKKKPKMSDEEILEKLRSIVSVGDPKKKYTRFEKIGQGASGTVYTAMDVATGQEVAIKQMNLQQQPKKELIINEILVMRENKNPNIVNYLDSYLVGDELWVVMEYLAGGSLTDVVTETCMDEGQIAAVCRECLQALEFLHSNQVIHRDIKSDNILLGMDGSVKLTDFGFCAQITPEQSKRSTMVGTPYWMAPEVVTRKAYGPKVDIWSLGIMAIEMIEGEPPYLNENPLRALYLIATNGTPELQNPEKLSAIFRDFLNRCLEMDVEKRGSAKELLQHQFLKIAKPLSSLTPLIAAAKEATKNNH
CSNK1A1L, construct: Full length, sequence (Q8N752 whole entry, looked up): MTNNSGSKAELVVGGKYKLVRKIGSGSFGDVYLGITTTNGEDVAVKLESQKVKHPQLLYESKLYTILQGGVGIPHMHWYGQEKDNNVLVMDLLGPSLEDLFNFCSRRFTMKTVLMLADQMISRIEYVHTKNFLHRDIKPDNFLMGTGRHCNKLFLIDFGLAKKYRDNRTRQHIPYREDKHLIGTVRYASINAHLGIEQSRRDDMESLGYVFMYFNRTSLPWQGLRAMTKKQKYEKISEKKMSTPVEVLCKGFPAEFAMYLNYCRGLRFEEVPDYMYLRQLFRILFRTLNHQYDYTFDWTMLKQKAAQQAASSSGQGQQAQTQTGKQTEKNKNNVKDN

Row | Substance | relative phosphorylation
1 | CIT, construct: aa1-449 (from UniProt O14578) | 0.788
2 | PAK1, construct: aa150-end (from UniProt Q13153) | 0.877
3 | CAMK2D, construct: Full length (from UniProt Q13557) | 0.696
4 | CDKL1, construct: aa2-304 (from UniProt Q00532) | 1.42
5 | ACVR1B, construct: aa150-end (from UniProt P36896) | 0.754
6 | TSSK1B, construct: Full length (from UniProt Q9BXA7) | 0.896
7 | CSNK1A1L, construct: Full length (from UniProt Q8N752) | 0.971
8 | CSNK1G3, construct: Full length (from UniProt Q9Y6M4) | 0.678

Same assay, conditions: A fixed; at +2

Row | Substance | relative phosphorylation
9 | CIT, construct: aa1-449 (from UniProt O14578) | 1.01
10 | PAK1, construct: aa150-end (from UniProt Q13153) | 1.16
11 | CAMK2D, construct: Full length (from UniProt Q13557) | 0.903
12 | CDKL1, construct: aa2-304 (from UniProt Q00532) | 0.825
13 | ACVR1B, construct: aa150-end (from UniProt P36896) | 1.35
14 | TSSK1B, construct: Full length (from UniProt Q9BXA7) | 1.04
15 | CSNK1A1L, construct: Full length (from UniProt Q8N752) | 1.06
16 | CSNK1G3, construct: Full length (from UniProt Q9Y6M4) | 0.743

Same assay, conditions: A fixed; at +3

Row | Substance | relative phosphorylation
17 | CIT, construct: aa1-449 (from UniProt O14578) | 0.8
18 | PAK1, construct: aa150-end (from UniProt Q13153) | 0.875
19 | CAMK2D, construct: Full length (from UniProt Q13557) | 1.09
20 | CDKL1, construct: aa2-304 (from UniProt Q00532) | 0.9
21 | ACVR1B, construct: aa150-end (from UniProt P36896) | 0.905
22 | TSSK1B, construct: Full length (from UniProt Q9BXA7) | 0.82
23 | CSNK1A1L, construct: Full length (from UniProt Q8N752) | 1.06
24 | CSNK1G3, construct: Full length (from UniProt Q9Y6M4) | 0.752

Same assay, conditions: A fixed; at +4

Row | Substance | relative phosphorylation
25 | CIT, construct: aa1-449 (from UniProt O14578) | 0.784
26 | PAK1, construct: aa150-end (from UniProt Q13153) | 1.05
27 | CAMK2D, construct: Full length (from UniProt Q13557) | 1.13
28 | CDKL1, construct: aa2-304 (from UniProt Q00532) | 0.849
29 | ACVR1B, construct: aa150-end (from UniProt P36896) | 1.06
30 | TSSK1B, construct: Full length (from UniProt Q9BXA7) | 0.786
31 | CSNK1A1L, construct: Full length (from UniProt Q8N752) | 1.04
32 | CSNK1G3, construct: Full length (from UniProt Q9Y6M4) | 0.708

Same assay, conditions: A fixed; at -1

Row | Substance | relative phosphorylation
33 | CIT, construct: aa1-449 (from UniProt O14578) | 0.721
34 | PAK1, construct: aa150-end (from UniProt Q13153) | 0.946
35 | CAMK2D, construct: Full length (from UniProt Q13557) | 1.05
36 | CDKL1, construct: aa2-304 (from UniProt Q00532) | 0.875
37 | ACVR1B, construct: aa150-end (from UniProt P36896) | 0.833
38 | TSSK1B, construct: Full length (from UniProt Q9BXA7) | 1.15
39 | CSNK1A1L, construct: Full length (from UniProt Q8N752) | 1.09
40 | CSNK1G3, construct: Full length (from UniProt Q9Y6M4) | 0.916

Same assay, conditions: A fixed; at -2

Row | Substance | relative phosphorylation
41 | CIT, construct: aa1-449 (from UniProt O14578) | 0.715
42 | PAK1, construct: aa150-end (from UniProt Q13153) | 0.789
43 | CAMK2D, construct: Full length (from UniProt Q13557) | 1.26
44 | CDKL1, construct: aa2-304 (from UniProt Q00532) | 0.874
45 | ACVR1B, construct: aa150-end (from UniProt P36896) | 0.721
46 | TSSK1B, construct: Full length (from UniProt Q9BXA7) | 1.84
47 | CSNK1A1L, construct: Full length (from UniProt Q8N752) | 1.69
48 | CSNK1G3, construct: Full length (from UniProt Q9Y6M4) | 1.39

Same assay, conditions: A fixed; at -3

Row | Substance | relative phosphorylation
49 | CIT, construct: aa1-449 (from UniProt O14578) | 0.553
50 | PAK1, construct: aa150-end (from UniProt Q13153) | 0.87
51 | CAMK2D, construct: Full length (from UniProt Q13557) | 0.926
52 | CDKL1, construct: aa2-304 (from UniProt Q00532) | 0.724
53 | ACVR1B, construct: aa150-end (from UniProt P36896) | 0.953
54 | TSSK1B, construct: Full length (from UniProt Q9BXA7) | 0.918
55 | CSNK1A1L, construct: Full length (from UniProt Q8N752) | 0.946
56 | CSNK1G3, construct: Full length (from UniProt Q9Y6M4) | 0.508

Same assay, conditions: A fixed; at -4

Row | Substance | relative phosphorylation
57 | CIT, construct: aa1-449 (from UniProt O14578) | 1
58 | PAK1, construct: aa150-end (from UniProt Q13153) | 1.27
59 | CAMK2D, construct: Full length (from UniProt Q13557) | 1.07
60 | CDKL1, construct: aa2-304 (from UniProt Q00532) | 0.985
61 | ACVR1B, construct: aa150-end (from UniProt P36896) | 0.891
62 | TSSK1B, construct: Full length (from UniProt Q9BXA7) | 1.21
63 | CSNK1A1L, construct: Full length (from UniProt Q8N752) | 0.941
64 | CSNK1G3, construct: Full length (from UniProt Q9Y6M4) | 0.923

Same assay, conditions: A fixed; at -5

Row | Substance | relative phosphorylation
65 | CIT, construct: aa1-449 (from UniProt O14578) | 0.448
66 | PAK1, construct: aa150-end (from UniProt Q13153) | 1.39
67 | CAMK2D, construct: Full length (from UniProt Q13557) | 0.966
68 | CDKL1, construct: aa2-304 (from UniProt Q00532) | 0.964
69 | ACVR1B, construct: aa150-end (from UniProt P36896) | 1.03
70 | TSSK1B, construct: Full length (from UniProt Q9BXA7) | 1.05
71 | CSNK1A1L, construct: Full length (from UniProt Q8N752) | 0.921
72 | CSNK1G3, construct: Full length (from UniProt Q9Y6M4) | 1.01

Same assay, conditions: D fixed; at +1

Row | Substance | relative phosphorylation
73 | CIT, construct: aa1-449 (from UniProt O14578) | 0.453
74 | PAK1, construct: aa150-end (from UniProt Q13153) | 0.338
75 | CAMK2D, construct: Full length (from UniProt Q13557) | 0.461
76 | CDKL1, construct: aa2-304 (from UniProt Q00532) | 0.679
77 | ACVR1B, construct: aa150-end (from UniProt P36896) | 1.17
78 | TSSK1B, construct: Full length (from UniProt Q9BXA7) | 0.619
79 | CSNK1A1L, construct: Full length (from UniProt Q8N752) | 0.691
80 | CSNK1G3, construct: Full length (from UniProt Q9Y6M4) | 0.543

Same assay, conditions: D fixed; at +2

Row | Substance | relative phosphorylation
81 | CIT, construct: aa1-449 (from UniProt O14578) | 0.586
82 | PAK1, construct: aa150-end (from UniProt Q13153) | 0.472
83 | CAMK2D, construct: Full length (from UniProt Q13557) | 3.3
84 | CDKL1, construct: aa2-304 (from UniProt Q00532) | 0.924
85 | ACVR1B, construct: aa150-end (from UniProt P36896) | 1.11
